# Assay results taken from publication PMC11811891, “Structural insights into human TFIIIC promoter recognition” (Science Advances, 2023).
# T1: human TFIIIC subunit TFIIIC63 (human, UniProt Q9Y5Q8 1-519)
# T1 construct: TFIIIC63, subunit of human TFIIIC; coding gene from DNASU, codon-optimized for insect cells; No truncation is described; also called τ95 in yeast (homolog); GTC3C5 (so in the source); source: Sf21 insect cells, baculovirus, coexpressed with the other five hTFIIIC subunits; purified (anti-FLAG M2 agarose, Capto HiRes Q)
# T1 sequence: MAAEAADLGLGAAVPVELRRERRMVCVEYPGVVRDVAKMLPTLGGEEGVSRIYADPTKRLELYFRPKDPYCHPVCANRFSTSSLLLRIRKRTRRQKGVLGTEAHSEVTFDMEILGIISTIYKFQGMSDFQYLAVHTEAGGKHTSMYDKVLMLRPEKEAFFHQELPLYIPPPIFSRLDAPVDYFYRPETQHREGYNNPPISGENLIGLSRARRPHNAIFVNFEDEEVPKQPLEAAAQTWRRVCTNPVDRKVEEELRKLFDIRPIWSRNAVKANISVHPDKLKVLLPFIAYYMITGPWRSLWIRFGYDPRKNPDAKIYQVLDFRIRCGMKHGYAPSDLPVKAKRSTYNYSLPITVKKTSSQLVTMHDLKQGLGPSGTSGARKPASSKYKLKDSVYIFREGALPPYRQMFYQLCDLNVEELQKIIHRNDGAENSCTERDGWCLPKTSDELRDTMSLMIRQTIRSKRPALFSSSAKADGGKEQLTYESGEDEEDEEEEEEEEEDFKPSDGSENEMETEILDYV
# T2: human TFIIIC subunit TFIIIC102 (human, UniProt Q9Y5Q9 1-886)
# T2 construct: TFIIIC102, subunit of human TFIIIC; No truncation is described; also called τ131 in yeast (homolog); GTF3C3; source: Sf21 insect cells, baculovirus, coexpressed with the other five hTFIIIC subunits; purified (anti-FLAG M2 agarose, Capto HiRes Q)
# T2 sequence: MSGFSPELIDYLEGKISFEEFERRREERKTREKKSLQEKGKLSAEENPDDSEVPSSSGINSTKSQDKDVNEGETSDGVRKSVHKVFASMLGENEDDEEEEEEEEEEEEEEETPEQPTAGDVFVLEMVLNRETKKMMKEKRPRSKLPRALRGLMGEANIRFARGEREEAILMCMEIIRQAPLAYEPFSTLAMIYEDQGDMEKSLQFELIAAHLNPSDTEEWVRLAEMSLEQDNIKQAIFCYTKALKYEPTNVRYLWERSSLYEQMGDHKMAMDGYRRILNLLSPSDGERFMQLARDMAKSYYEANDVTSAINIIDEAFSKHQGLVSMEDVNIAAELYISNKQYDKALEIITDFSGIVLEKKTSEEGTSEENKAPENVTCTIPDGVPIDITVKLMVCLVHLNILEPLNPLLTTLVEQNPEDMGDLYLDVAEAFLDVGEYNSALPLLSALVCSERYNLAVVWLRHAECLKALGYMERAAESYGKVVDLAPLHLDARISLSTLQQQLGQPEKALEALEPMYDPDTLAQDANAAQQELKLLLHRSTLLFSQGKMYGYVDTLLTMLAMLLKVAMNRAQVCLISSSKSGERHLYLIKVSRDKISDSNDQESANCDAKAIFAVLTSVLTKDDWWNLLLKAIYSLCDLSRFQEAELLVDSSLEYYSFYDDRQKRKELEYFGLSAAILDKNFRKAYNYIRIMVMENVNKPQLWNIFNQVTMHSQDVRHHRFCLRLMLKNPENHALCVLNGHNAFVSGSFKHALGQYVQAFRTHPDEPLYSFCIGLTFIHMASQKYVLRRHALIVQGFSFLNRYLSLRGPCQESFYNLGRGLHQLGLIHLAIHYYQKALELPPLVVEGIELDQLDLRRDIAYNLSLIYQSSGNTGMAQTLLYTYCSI
# B1: human TFIIIC subunit TFIIIC110 (natural protein)
# chain: MDTCGVGYVALGEAGPVGNMTVVDSPGQEVLNQLDVKTSSEMTSAEASVEMSLPTPLPGFEDSPDQRRLPPEQESLSRLEQPDLSSEMSKVSKPRASKPGRKRGGRTRKGPKRPQQPNPPSAPLVPGLLDQSNPLSTPMPKKRGRKSKAELLLLKLSKDLDRPESQSPKRPPEDFETPSGERPRRRAAQVALLYLQELAEELSTALPAPVSCPEGPKVSSPTKPKKIRQPAACPGGEEVDGAPRDEDFFLQVEAEDVEESEGPSESSSEPEPVVPRSTPRGSTSGKQKPHCRGMAPNGLPNHIMAPVWKCLHLTKDFREQKHSYWEFAEWIPLAWKWHLLSELEAAPYLPQEEKSPLFSVQREGLPEDGTLYRINRFSSITAHPERWDVSFFTGGPLWALDWCPVPEGAGASQYVALFSSPDMNETHPLSQLHSGPGLLQLWGLGTLQQESCPGNRAHFVYGIACDNGCIWDLKFCPSGAWELPGTPRKAPLLPRLGLLALACSDGKVLLFSLPHPEALLAQQPPDAVKPAIYKVQCVATLQVGSMQATDPSECGQCLSLAWMPTRPHQHLAAGYYNGMVVFWNLPTNSPLQRIRLSDGSLKLYPFQCFLAHDQAVRTLQWCKANSHFLVSAGSDRKIKFWDLRRPYEPINSIKRFLSTELAWLLPYNGVTVAQDNCYASYGLCGIHYIDAGYLGFKAYFTAPRKGTVWSLSGSDWLGTIAAGDISGELIAAILPDMALNPINVKRPVERRFPIYKADLIPYQDSPEGPDHSSASSGVPNPPKARTYTETVNHHYLLFQDTDLGSFHDLLRREPMLRMQEGEGHSQLCLDRLQLEAIHKVRFSPNLDSYGWLVSGGQSGLVRIHFVRGLASPLGHRMQLESRAHFNAMFQPSSPTRRPGFSPTSHRLLPTP
# notes: TFIIIC110, subunit of human TFIIIC; No truncation is described; also called τ91 in yeast (homolog); GTF3C2; source: Sf21 insect cells, baculovirus, coexpressed with the other five hTFIIIC subunits; purified (anti-FLAG M2 agarose, Capto HiRes Q)
# B2: TRR-TCT3-2 tRNA gene, 32P-labeled (dsDNA)
# DNA 1: ACGTGTCTGGCTCTGTGGCGCAATGGATAGCGCATTGGACTTCTAGATAGTTAGAGAAATTCAAAGGTTGTGGGTTCGAGTCCCACAGAGTCGCTTTT
# DNA 2: AAAAGCGACTCTGTGGGACTCGAACCCACAACCTTTGAATTTCTCTAACTATCTAGAAGTCCAATGCGCTATCCATTGCGCCACAGAGCCAGACACGT
# B3: human TFIIIC subunit TFIIIC35 (natural protein)
# chain: MAAAADERSPEDGEDEEEEEQLVLVELSGIIDSDFLSKCENKCKVLGIDTERPILQVDSCVFAGEYEDTLGTCVIFEENVEHADTEGNNKTVLKYKCHTMKKLSMTRTLLTEKKEGEENIGGVEWLQIKDNDFSYRPNMICNFLHENEDEEVVASAPDKSLELEEEEIQMNDSSNLSCEQEKPMHLEIEDSGPLIDIPSETEGSVFMETQMLP
# notes: TFIIIC35, subunit of human TFIIIC; the ordered GTF3C6 gene encoded a serine in position 1, which was replaced by methionine; No truncation is described; also called τ55 in yeast (homolog); GTF3C6; source: Sf21 insect cells, baculovirus, coexpressed with the other five hTFIIIC subunits; purified (anti-FLAG M2 agarose, Capto HiRes Q)
# B4: TFIIIC35-TFIIIC63 heterodimer (complex, human)
# chain 1: B3 chain
# chain 2: T1 sequence
# notes: TFIIIC35, subunit of human TFIIIC; as the chain of m6; TFIIIC63, subunit of human TFIIIC; as the chain of m5; source: Sf21 insect cells, baculovirus, coexpressed within the six-subunit hTFIIIC complex; purified (anti-FLAG M2 agarose, Capto HiRes Q)
# Columns and labels:
# [1] = molecular target: T3, human TFIIIC subunit TFIIIC220 (human, UniProt Q12789 1-2109); test: mass photometry; purified hTFIIIC alone; 1 μl of sample at 400 nM added to 19 μl of 20 mM Hepes pH 8, 150 mM KCl, 2 mM MgCl2, 5 mM DTT; Refeyn TwoMP; nanomolar concentrations; conditions: both partners purified
# T3 construct: TFIIIC220, largest subunit of human TFIIIC; 2109 amino acids as printed; No truncation is described; the expected mass of 624 kDa is that of the intact complex; also called τ138 in yeast (homolog); GTF3C1; source: Sf21 insect cells, baculovirus, coexpressed with the other five hTFIIIC subunits; purified (anti-FLAG M2 agarose, Capto HiRes Q); not shown: 3x FLAG, C-terminal, kept
# [2] = molecular target: the molecule itself; test: cryo-EM structure; purified hTFIIIC (3.17 μM) alone or with human TRR-TCT3-2 tRNA gene DNA at a 1:1 molar ratio; EM buffer 20 mM Hepes pH 8, 225 mM KCl, 2 mM MgCl2, 5 mM DTT; 0.1% octyl-β-glucoside; separate reconstructions of τA and of dimeric τB
# [3] = molecular target: TFIIIC220;TFIIIC110;TFIIIC102;TFIIIC90;TFIIIC63;TFIIIC35 (human;human;human;human;human;human, UniProt Q12789;Q8WUA4;Q9Y5Q9;Q9UKN8;Q9Y5Q8;Q969F1 1-2109;1-911;1-886;1-822;1-519;1-213, |||||); test: filter binding; 150 mM KCl, 2 mM MgCl2, 4 C; Filter binding: 20 mM Tris-HCl pH 7.5, 150 mM KCl, 2 mM MgCl2, 5 mM DTT, 30 min 4 C, ~0.5 nM DNA; EMSA: 20 mM Hepes pH 8, 225 mM KCl, 2 mM MgCl2, 5 mM DTT, RT 10 min, 0.8% agarose gel at 4 C; conditions: protein: recombinant;recombinant;recombinant;recombinant;recombinant;recombinant; tags: C-terminal 3xFLAG;N-terminal TEV-cleavable His;;;N-terminal TEV-cleavable His;; copies: 1;1;1;1;1;1; label: 5'-32P; blunt
# [4] = molecular target: T1, human TFIIIC subunit TFIIIC63; test: cryo-EM structure; purified hTFIIIC (3.17 μM) alone or with human TRR-TCT3-2 tRNA gene DNA at a 1:1 molar ratio; EM buffer 20 mM Hepes pH 8, 225 mM KCl, 2 mM MgCl2, 5 mM DTT; 0.1% octyl-β-glucoside; separate reconstructions of τA and of dimeric τB; conditions: both partners purified
# [5] = molecular target: T3, human TFIIIC subunit TFIIIC220; test: as above; conditions: both partners purified
# [6] = molecular target: T2, human TFIIIC subunit TFIIIC102; test: as above; conditions: both partners purified
# T3 sequence (Q12789 whole entry, the tested form may be a part): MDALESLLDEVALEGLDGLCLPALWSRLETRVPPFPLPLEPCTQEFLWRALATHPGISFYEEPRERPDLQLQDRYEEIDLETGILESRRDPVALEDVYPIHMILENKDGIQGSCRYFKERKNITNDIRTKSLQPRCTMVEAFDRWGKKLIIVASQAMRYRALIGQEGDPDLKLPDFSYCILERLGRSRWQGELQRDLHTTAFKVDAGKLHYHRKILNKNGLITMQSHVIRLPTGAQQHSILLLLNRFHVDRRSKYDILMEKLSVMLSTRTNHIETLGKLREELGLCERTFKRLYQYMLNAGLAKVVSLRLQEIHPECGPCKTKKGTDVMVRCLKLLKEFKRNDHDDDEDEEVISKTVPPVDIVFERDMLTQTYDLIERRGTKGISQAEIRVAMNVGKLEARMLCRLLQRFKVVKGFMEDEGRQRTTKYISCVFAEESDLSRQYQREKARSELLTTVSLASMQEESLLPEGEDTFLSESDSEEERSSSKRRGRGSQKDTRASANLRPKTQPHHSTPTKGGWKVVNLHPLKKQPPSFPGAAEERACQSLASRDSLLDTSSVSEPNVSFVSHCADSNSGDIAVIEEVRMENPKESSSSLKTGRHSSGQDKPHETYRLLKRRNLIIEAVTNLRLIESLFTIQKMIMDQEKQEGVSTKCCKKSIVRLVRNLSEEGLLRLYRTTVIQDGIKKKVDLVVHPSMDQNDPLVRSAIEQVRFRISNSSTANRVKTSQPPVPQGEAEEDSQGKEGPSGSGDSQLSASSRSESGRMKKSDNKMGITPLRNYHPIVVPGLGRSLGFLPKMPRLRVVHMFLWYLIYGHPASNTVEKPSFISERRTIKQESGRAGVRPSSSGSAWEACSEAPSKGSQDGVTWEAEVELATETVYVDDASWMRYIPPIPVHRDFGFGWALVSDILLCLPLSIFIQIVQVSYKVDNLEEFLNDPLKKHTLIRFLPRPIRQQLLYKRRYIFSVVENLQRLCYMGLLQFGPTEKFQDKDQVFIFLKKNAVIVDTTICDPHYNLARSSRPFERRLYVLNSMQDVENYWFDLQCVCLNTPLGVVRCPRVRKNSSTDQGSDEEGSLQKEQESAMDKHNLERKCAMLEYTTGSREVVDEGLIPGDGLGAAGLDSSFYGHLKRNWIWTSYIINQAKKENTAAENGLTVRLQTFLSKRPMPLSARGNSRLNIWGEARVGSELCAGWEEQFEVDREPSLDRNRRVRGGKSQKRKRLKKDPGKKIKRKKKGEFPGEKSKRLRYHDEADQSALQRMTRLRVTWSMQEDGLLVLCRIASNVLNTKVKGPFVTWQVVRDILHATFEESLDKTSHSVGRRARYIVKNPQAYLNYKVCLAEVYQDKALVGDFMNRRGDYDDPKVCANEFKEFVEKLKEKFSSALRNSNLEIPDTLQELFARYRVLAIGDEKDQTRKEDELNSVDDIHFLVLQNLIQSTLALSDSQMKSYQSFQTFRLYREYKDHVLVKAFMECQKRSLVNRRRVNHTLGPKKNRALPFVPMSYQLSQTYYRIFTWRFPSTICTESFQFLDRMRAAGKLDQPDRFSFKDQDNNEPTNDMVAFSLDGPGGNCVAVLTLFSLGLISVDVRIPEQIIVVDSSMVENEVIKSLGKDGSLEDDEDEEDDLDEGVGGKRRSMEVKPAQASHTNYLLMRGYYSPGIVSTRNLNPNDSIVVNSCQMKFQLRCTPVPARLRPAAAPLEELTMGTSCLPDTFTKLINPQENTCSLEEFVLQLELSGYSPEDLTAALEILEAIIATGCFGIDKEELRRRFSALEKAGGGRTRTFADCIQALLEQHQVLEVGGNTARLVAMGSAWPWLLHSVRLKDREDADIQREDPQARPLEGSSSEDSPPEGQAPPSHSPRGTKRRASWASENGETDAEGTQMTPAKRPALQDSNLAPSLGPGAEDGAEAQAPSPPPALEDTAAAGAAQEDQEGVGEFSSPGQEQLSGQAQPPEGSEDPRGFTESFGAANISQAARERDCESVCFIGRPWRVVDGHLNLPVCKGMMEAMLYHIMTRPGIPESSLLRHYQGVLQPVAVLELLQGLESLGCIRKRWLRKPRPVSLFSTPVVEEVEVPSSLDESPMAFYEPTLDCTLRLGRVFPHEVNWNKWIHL
# Sequence of TFIIIC220;TFIIIC110;TFIIIC102;TFIIIC90;TFIIIC63;TFIIIC35 (Q12789 whole entry, chain 1 of 3, one chain of several): as the sequence (Q12789 whole entry, the tested form may be a part) above
# Sequence of TFIIIC220;TFIIIC110;TFIIIC102;TFIIIC90;TFIIIC63;TFIIIC35 (Q9UKN8 whole entry, chain 4 of 3, one chain of several): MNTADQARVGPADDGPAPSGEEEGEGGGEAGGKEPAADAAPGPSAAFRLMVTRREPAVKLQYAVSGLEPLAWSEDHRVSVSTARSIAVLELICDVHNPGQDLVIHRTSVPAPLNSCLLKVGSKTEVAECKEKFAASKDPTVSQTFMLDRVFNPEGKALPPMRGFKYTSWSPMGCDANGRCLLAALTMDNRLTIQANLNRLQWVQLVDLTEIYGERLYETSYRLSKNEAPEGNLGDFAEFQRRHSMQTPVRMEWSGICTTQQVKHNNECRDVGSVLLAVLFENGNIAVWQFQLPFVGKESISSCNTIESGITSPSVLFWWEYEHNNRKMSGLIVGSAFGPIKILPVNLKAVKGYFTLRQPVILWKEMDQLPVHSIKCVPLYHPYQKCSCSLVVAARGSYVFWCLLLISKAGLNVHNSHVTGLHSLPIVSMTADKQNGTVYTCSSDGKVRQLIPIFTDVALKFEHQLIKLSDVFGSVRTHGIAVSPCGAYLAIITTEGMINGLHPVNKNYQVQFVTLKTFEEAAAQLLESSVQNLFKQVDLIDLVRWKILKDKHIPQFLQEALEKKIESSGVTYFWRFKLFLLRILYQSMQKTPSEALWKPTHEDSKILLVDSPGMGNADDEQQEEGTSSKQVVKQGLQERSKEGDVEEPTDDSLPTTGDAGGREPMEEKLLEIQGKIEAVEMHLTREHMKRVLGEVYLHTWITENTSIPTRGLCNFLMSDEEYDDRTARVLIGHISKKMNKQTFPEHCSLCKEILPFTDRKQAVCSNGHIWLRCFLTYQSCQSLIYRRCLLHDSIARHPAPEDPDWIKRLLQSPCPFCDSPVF
binder,measurement,setting,value
B1,binding result,[1],binds
same,stoichiometry N,[2],2
B2,Kd,[3],40 nM
B3,binding result,[1],binds
same,binding result,[4],binds
B4,binding result,[5],binds
same,binding result,[6],binds
